Data on two substances can be found in patent publication US20220380482A1.

A word on the Kd: it is a measure of binding affinity in units of concentration. A lower Kd goes with a tighter complex.

The test concerns the target human neonatal Fc receptor (FcRn) (human) (UniProt P55899). In words: SPR (Biacore T200), FcRn amine-coupled to CM5 chip, antibody as analyte, steady state fit, pH 6.0. A general note: SPR reads the build-up and loss of mass on a sensor chip optically.

human neonatal Fc receptor (FcRn) (human), sequence (P55899 24-297 limits assumed, chain 1 of 2): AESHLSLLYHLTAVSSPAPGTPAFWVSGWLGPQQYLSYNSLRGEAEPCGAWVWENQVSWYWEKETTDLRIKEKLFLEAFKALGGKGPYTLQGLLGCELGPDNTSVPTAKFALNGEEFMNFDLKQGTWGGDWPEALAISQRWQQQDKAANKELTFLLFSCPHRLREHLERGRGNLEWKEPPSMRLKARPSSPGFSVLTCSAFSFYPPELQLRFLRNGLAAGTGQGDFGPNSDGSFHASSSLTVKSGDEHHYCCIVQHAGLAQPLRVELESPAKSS
human neonatal Fc receptor (FcRn) (human), sequence (P61769 21-119 limits assumed, chain 2 of 2, further chain): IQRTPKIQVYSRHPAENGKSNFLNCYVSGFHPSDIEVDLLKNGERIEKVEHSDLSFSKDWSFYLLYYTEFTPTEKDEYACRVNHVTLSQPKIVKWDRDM

Substance Irrelevant IgG1 (antibody) gave an equilibrium dissociation constant (Kd) of 2370 nM.

In turn, Irrelevant IgG4 (antibody) showed a Kd of 3250 nM.
